T1: C-terminally HA-tagged wild type (WT) RPTPκ (NM 008983.2), full-length, immunoprecipitated from COS-1 cells (UniProt P35822 26-1457)
T1 construct: It was held on anti-HA immunoprecipitate beads in the assay; also called HA-tagged WT RPTPκ; full-length RPTPk; not shown: C-terminal HA tag
T1 sequence (looked up): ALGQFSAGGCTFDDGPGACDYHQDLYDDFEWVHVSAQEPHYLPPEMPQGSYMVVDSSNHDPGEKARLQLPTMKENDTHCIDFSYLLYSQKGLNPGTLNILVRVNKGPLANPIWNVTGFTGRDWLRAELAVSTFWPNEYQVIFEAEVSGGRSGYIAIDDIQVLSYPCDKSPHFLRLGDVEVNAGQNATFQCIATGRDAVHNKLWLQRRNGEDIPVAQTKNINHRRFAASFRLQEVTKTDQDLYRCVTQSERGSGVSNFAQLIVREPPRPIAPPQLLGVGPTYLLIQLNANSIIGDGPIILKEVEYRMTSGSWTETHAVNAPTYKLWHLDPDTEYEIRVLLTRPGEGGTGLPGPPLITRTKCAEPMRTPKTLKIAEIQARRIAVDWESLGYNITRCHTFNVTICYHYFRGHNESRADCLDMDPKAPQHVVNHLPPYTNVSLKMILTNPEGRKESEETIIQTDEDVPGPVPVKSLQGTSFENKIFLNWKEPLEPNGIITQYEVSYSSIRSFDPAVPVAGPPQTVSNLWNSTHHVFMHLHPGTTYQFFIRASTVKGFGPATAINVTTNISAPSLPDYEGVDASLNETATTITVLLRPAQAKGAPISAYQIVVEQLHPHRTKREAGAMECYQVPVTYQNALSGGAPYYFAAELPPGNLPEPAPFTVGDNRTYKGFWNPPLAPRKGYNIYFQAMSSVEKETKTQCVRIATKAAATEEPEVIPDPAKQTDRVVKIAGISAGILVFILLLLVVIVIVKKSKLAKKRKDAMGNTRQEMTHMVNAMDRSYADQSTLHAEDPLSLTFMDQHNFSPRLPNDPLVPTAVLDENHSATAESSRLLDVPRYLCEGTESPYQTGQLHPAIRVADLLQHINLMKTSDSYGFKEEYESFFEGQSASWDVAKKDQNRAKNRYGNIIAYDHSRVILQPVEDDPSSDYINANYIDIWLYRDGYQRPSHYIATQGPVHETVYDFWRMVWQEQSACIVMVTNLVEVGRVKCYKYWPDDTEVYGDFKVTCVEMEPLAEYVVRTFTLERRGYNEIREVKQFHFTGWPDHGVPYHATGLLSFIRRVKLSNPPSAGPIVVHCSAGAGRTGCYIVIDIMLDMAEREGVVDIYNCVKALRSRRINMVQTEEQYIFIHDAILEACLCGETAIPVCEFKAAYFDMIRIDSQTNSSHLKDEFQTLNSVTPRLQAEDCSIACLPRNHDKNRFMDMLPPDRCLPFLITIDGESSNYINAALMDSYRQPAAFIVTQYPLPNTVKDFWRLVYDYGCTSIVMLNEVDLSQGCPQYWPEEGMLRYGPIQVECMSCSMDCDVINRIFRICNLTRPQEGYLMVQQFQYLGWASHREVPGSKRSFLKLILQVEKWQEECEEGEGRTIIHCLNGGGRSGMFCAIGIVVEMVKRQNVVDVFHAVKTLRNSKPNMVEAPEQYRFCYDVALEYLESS

B1: YES (endogenous, from RA FLS lysates) (enzyme)
chain: not shown
B2: S-tagged-iPTPκ-D1051A, substrate-trapping mutant of the catalytic domain of RPTPκ (aa865-1156 of NP_002835.2) (enzyme, not shown: small tags and cut ends)
chain: HPAIRVADLLQHINLMKTSDSYGFKEEYESFFEGQSASWDVAKKDQNRAKNRYGNIIAYDHSRVILQPVEDDPSSDYINANYIDGYQRPSHYIATQGPVHETVYDFWRMIWQEQSACIVMVTNLVEVGRVKCYKYWPDDTEVYGDFKVTCVEMEPLAEYVVRTFTLERRGYNEIREVKQFHFTGWPAHGVPYHATGLLSFIRRVKLSNPPSAGPIVVHCSAGAGRTGCYIVIDIMLDMAEREGVVDIYNCVKALRSRRINMVQTEEQYIFIHDAILEACLCGETAIPVCEFK
notes: Numbering counts on NP_002835.2, which may differ from the canonical UniProt isoform; also called iPTPk-D1051A; iPTPK-D1051A

Tests used:
[1] = biological target: T1, C-terminally HA-tagged wild type (WT) …; experiment: pull-down of RA FLS lysates with immunoprecipitated HA-tagged RPTPκ, Western blotting
Procedure: In vitro Pull-Down Assay. HA-tagged WT RPTPκ was overexpressed in COS-1 cells. Cells were lysed in THE buffer (20 mM Tris-HCl pH 7.5, 150 mM NaCl, 5 mM EDTA pH 8.0 and 1% NP-40) containing 10 μg/mL aprotinin, 10 μg/mL leupeptin, 10 μg/mL soybean trypsin inhibitor, and 1 mM phenylmethylsulfonyl fluoride. RPTPκ was immunoprecipitated using anti-HA antibody (Covance, Princeton, N.J.). RA FLS were lysed in RIPA buffer containing 10 μg/mL aprotinin, 10 μg/mL leupeptin, 10 μg/mL soybean trypsin inhibitor, 1 mM phenylmethylsulfonyl fluoride and 5 mM iodoacetamide. Lysates were treated with 10 mM dithiothreitol for 10 min, and then diluted 10-fold in buffer containing 25 mM Tris-HCl pH 7.6, 150 mM NaCl and 1 mM ethylenediaminetetraacetic acid. Immunoprecipitates were incubated with RA FLS lysates for 3 hr at 4° C., washed in the dilution buffer, and subjected to Western blotting.
We next investigated if RPTPk directly interacts with and/or dephosphorylates SFKs. HA-tagged RPTPκ was immunoprecipitated from COS-1 cells and incubated in vitro with RA FLS lysates, and pull-down was subjected to Western blotting. Both full-length RPTPk immunoprecipitated from COS-1 cells and a recombinant substrate-trapping mutant of the RPTPk catalytic domain (iPTPk-D1051A) precipitated SRC from RA FLS lysates in pull-down assays, but not YES or FYN (SFKs also expressed in FLS).

[2] = biological target: FYN (endogenous, from RA FLS lysates) (human, UniProt P06241 2-537, limits assumed); experiment: substrate-trapping pull-down of RA FLS lysates with agarose-bound S-tagged iPTPκ-D1051A, Western blotting
Sequence of FYN (endogenous, from RA FLS lysates) (P06241 2-537 limits assumed): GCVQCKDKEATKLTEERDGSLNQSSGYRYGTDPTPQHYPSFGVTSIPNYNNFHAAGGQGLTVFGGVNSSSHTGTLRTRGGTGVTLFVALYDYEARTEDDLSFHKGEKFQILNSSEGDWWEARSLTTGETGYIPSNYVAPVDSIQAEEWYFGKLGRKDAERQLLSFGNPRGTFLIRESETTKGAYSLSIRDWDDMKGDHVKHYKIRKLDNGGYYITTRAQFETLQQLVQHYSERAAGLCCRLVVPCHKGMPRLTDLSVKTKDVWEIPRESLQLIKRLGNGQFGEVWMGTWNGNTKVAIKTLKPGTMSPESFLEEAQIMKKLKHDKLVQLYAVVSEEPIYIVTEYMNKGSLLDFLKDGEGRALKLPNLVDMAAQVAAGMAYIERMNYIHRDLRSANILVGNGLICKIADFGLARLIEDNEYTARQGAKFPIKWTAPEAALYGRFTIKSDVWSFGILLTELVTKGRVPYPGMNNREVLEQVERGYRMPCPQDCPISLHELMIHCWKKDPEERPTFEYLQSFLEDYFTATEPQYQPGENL
Procedure: (§1) Accordingly, cDNA (codon optimized for expression in E. coli [Genscript, Piscataway, N.J.]) encoding a substrate-trapping mutant of the catalytic domain of RPTPκ (iPTPK-D1051A, aa865-1156 of NP_002835.2) was cloned into the pET30c vector. S-tagged-iPTPK-D1051A was isolated from E. coli using S-protein agarose (EMD Millipore). RA FLS were lysed in RIPA buffer containing 10 μg/mL aprotinin, 10 μg/mL leupeptin, 10 μg/mL soybean trypsin inhibitor, 1 mM phenylmethylsulfonyl fluoride and 5 mM iodoacetamide. Lysates were treated with 10 mM dithiothreitol for 10 min, and then diluted 10-fold in buffer containing 25 mM Tris-HCl pH 7.6, 150 mM NaCl and 1 mM ethylenediaminetetraacetic acid. Agarose-bound S-tagged-iPTPκ-D1051A was incubated with RA FLS lysates for 3 hr at 4° C., washed in the dilution buffer, and subjected to Western blotting.

[3] = biological target: B1; experiment: as above
Procedure: as §1

| Binder | binding result [1] | binding result [2] | binding result [3] |
| --- | --- | --- | --- |
| B1 | no binding |  |  |
| B2 |  | no binding | no binding |
